This note sets out measurements from patent publication US20210395718A1, “NOVEL KETOSE 3-EPIMERASE” (NATIONAL UNIVERSITY CORPORATION KAGAWA UNIVERSITY, priority 2018, published 2021).

Positions count from the first letter of the chain named.

Series [1] is described as follows: Ketose 3-epimerase activity ratio (T70/T50) at reaction temperature of 70° C. to 50° C. The following applies: crude recombinant enzyme; ratio of activity at 70° C. to activity at 50° C., 10 min reaction. It is filed as biochemical. How it is done: An enzyme having higher heat resistance than an amino acid substitution-free wild type enzyme can be obtained by introducing mutation into the gene of the ketose 3-epimerase of the present invention and substituting the corresponding amino acid residue with another amino acid residue by a site-directed mutagenesis operation to prepare various amino acid-substituted mutants. The heat resistance is evaluated by two indices, that is, a ketose 3-epimerase activity ratio (T70/T50) at the reaction temperatures of 70° C. to 50° C. and a residual activity after incubation at 60° C. for one hour.
Heat resistance of the present enzyme (crude recombinant enzyme) and the crude enzyme of the control enzyme was investigated by measuring an activity at 70° C. and an activity at 50° C. under the reaction conditions (10 minutes) used for determining the optimum temperature in the above 2 shown in Table 2 and finding their ratio (T70/T50).

A short description of series [2]: Thermal stability: residual activity after incubation at 60° C. for one hour. Format: biochemical. The conditions noted are these: crude recombinant enzyme; after incubation at 60° C. for 1 hour. Here is the method:
Thermal stability of the enzyme was investigated by measuring the activity of the enzyme after incubation at 60° C. for one hour and finding its relative activity supposing that the activity at 60° C. under the reaction conditions (10 minutes) used for determining the optimum temperature in the above 2 shown in Table 2 was 100. As heat treatment conditions, the crude enzyme solution, a buffer (50 mM tris-HCl, pH 7.5), and 2 mM MgCl2 were used to give a total amount of 200 p1 and after retaining at 60° C. for one hour, the reaction mixture was cooled for 10 minutes in ice water. The residual enzyme activity was then measured by the conventional method.
The activity of each of the present enzyme (crude recombinant enzyme) and the crude enzyme of the control enzyme after incubation at 60° C. for 1 hour was measured and a relative activity of it was determined supposing that the activity at 60° C. under the reaction conditions (10 minutes) for determining the optimum temperature in the above 2 shown in Table 2 is 100. The relative activity was used as a heat resistance index of the enzyme. As heat treatment conditions, the crude enzyme solution, a buffer (50 mM tris-HCl, pH 7.5), and 2 mM MgCl2 were used to give a total amount of 200 p1 and after retaining at 60° C. for one hour, the reaction mixture was cooled for 10 minutes in ice water. The residual enzyme activity was measured by the conventional method.

B1: Ketose 3-epimerase mutant 18: amino acid-substituted mutant of SEQ ID NO: 1 (protein)
chain: MKIGCHGLVWTGRFDAEGIRYSVQKTKEAGFDLIEFPLMDPFSFDVATAKSALAEHGLTASASLGLSEATDVSSEDPAIVKAGEELLNRALDVLAELGATEFCGVIYSAMKKYMEPATEQGLSNSKAAVGRVVDRAAGLGINVSLEVVNRYETNVLNTGRQALSYLSDVKRPNLGVHLDTYHMNIEESDMFSPVLDTAEALKYVHIGESHRGYLGTGSVDFDNFFKALGRIGYDGPVVFESFSSAVVAPDLSRMLGIWRNLWADNEELGAHANAFIRDKLTAIKTIELH
modifications: Arthrobacter histidinolovorans
As to B1, the T70/T50 in series [1] is 1.85. The “Residual activity (%)” value in series [2] is 72.1%.

B2: Ketose 3-epimerase mutant 26: amino acid-substituted mutant of SEQ ID NO: 1 (protein)
chain: B1 chain with L97M, E101D
modifications: Arthrobacter histidinolovorans
For B2, in series [1], the T70/T50 came out at 1.65. In addition, the “Residual activity (%)” value in series [2] is 68.9%.

B3: Ketose 3-epimerase mutant 22: amino acid-substituted mutant of SEQ ID NO: 1 (protein)
chain: B1 chain with T59S, A60V, P77S, L94V, A109S, V129I, S144A, S167Q, A200V, S218N
modifications: Arthrobacter histidinolovorans
For the molecule B3, the T70/T50 in series [1] was found to be 1.70. The “Residual activity (%)” value in series [2] is given as 113.5%.

B4: Ketose 3-epimerase mutant 29: amino acid-substituted mutant of SEQ ID NO: 1 (protein)
chain: B1 chain with H56Y, E101D
modifications: Arthrobacter histidinolovorans
B4: in series [1], the T70/T50 came to 1.58. Besides, the “Residual activity (%)” value in series [2] is recorded as 56.8%.

B5: Ketose 3-epimerase mutant 25: amino acid-substituted mutant of SEQ ID NO: 1 (protein)
chain: B1 chain with E101D, K202R
modifications: Arthrobacter histidinolovorans
B5: the T70/T50 in series [1] is 1.66. For the same molecule, the “Residual activity (%)” value in series [2] worked out at 51.4%.

B6: Ketose 3-epimerase mutant 19: amino acid-substituted mutant of SEQ ID NO: 1 (protein)
chain: B1 chain with T59S, A60V, E101D, V129I, A200V, S218N
modifications: Arthrobacter histidinolovorans
In the case of B6, the T70/T50 in series [1] came to 1.85. The “Residual activity (%)” value in series [2] was 91.2%.

B7: Ketose 3-epimerase mutant 37: amino acid-substituted mutant of SEQ ID NO: 1 (protein)
chain: B1 chain with E101D, A109S
modifications: Arthrobacter histidinolovorans
B7: the T70/T50 in series [1] is listed as 1.07. The “Residual activity (%)” value in series [2] was 63.3%.

B8: Ketose 3-epimerase mutant 34: amino acid-substituted mutant of SEQ ID NO: 1 (protein)
chain: B1 chain with E101D, A128V
modifications: Arthrobacter histidinolovorans
As to B8, the T70/T50 in series [1] amounted to 1.38. Besides, the “Residual activity (%)” value in series [2] amounted to 57.2%.

B9: Ketose 3-epimerase mutant 21: amino acid-substituted mutant of SEQ ID NO: 1 (protein)
chain: B1 chain with T59S, A60V
modifications: Arthrobacter histidinolovorans
B9: in series [1], the T70/T50 stood at 1.70. The “Residual activity (%)” value in series [2] is given as 59.4%.

B10: Ketose 3-epimerase mutant 23: amino acid-substituted mutant of SEQ ID NO: 1 (protein)
chain: B1 chain with E101D, P172G
modifications: Arthrobacter histidinolovorans
As for B10, the T70/T50 in series [1] worked out at 1.69. For the same molecule, in series [2], the “Residual activity (%)” value is on record as 65.8%.

B11: Ketose 3-epimerase mutant 27: amino acid-substituted mutant of SEQ ID NO: 1 (protein)
chain: B1 chain with V129I
modifications: Arthrobacter histidinolovorans
As to B11, the T70/T50 in series [1] came to 1.64. For the same molecule, in series [2], the “Residual activity (%)” value stood at 61.9%.

B12: Ketose 3-epimerase mutant 35: amino acid-substituted mutant of SEQ ID NO: 1 (protein)
chain: B1 chain with E101D, V132I
modifications: Arthrobacter histidinolovorans
Take B12: in series [1], the T70/T50 stood at 1.34. Also, the “Residual activity (%)” value in series [2] is given as 69.2%.

B13: Ketose 3-epimerase mutant 24: amino acid-substituted mutant of SEQ ID NO: 1 (protein)
chain: B1 chain with E101D, S167Q
modifications: Arthrobacter histidinolovorans
B13: the T70/T50 in series [1] turned out to be 1.68. Besides, the “Residual activity (%)” value in series [2] is listed as 55.4%.

B14: Ketose 3-epimerase mutant 36: amino acid-substituted mutant of SEQ ID NO: 1 (protein)
chain: B1 chain with L94V, E101D
modifications: Arthrobacter histidinolovorans
Consider B14, for which, in series [1], the T70/T50 is listed as 1.30. Besides, in series [2], the “Residual activity (%)” value stood at 57.0%.

B15: Ketose 3-epimerase mutant 32: amino acid-substituted mutant of SEQ ID NO: 1 (protein)
chain: B1 chain with P77S, E101D
modifications: Arthrobacter histidinolovorans
Take B15: the T70/T50 in series [1] worked out at 1.53. Besides, the “Residual activity (%)” value in series [2] worked out at 39.9%.

B16: Ketose 3-epimerase mutant 30: amino acid-substituted mutant of SEQ ID NO: 1 (protein)
chain: B1 chain with E101D, S144A
modifications: Arthrobacter histidinolovorans
Take B16: the T70/T50 in series [1] is on record as 1.57. Also, the “Residual activity (%)” value in series [2] was found to be 66.9%.

B17: Ketose 3-epimerase mutant 31: amino acid-substituted mutant of SEQ ID NO: 1 (protein)
chain: B1 chain with E101D, E199D
modifications: Arthrobacter histidinolovorans
Regarding B17, the T70/T50 in series [1] came to 1.54. For the same molecule, the “Residual activity (%)” value in series [2] stood at 58.1%.

B18: Ketose 3-epimerase mutant 20: amino acid-substituted mutant of SEQ ID NO: 1 (protein)
chain: B1 chain with T59S, A60V, E101D, V129I
modifications: Arthrobacter histidinolovorans
For the molecule B18, the T70/T50 in series [1] was 1.79. The “Residual activity (%)” value in series [2] is given as 52.1%.

B19: Ketose 3-epimerase mutant 33: amino acid-substituted mutant of SEQ ID NO: 1 (protein)
chain: B1 chain with T59S, A60V, A200V, S218N
modifications: Arthrobacter histidinolovorans
As to B19, the T70/T50 in series [1] is given as 1.46. Besides, the “Residual activity (%)” value in series [2] stood at 91.0%.

B20: Ketose 3-epimerase mutant 28: amino acid-substituted mutant of SEQ ID NO: 1 (protein)
chain: B1 chain with V129I, A200V, S218N
modifications: Arthrobacter histidinolovorans
B20: in series [1], the T70/T50 is recorded as 1.62. Moreover, the “Residual activity (%)” value in series [2] is listed as 112.7%.
